Experimental data: patent US20190284242A1 (University of Washington, published 2019)

Key:
I52-33B = target: T1, I52-33B; test: size exclusion chromatography (Superose 6 10/300) of co-expressed, purified pair
T1 construct: also called dimer component of I52-33
T1 chain: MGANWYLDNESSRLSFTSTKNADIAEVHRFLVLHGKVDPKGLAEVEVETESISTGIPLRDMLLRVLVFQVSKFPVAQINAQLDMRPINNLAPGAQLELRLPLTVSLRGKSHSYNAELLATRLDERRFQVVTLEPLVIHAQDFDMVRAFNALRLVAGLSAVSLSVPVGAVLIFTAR

I32-06B = target: T2, I32-06B; test: negative stain electron microscopy class averages of the assembled nanostructure
T2 construct: also called trimer component of I32-06
T2 sequence (chain, as listed by the source): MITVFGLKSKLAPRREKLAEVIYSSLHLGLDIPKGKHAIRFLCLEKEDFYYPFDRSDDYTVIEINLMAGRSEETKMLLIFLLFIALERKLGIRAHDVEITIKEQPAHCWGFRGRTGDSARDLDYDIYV

| Binder | binding result (I52-33B) | binding result (I32-06B) |
| --- | --- | --- |
| I52-33A (designed binder, also called pentamer component of I52-33) MAVKGLGEVDQKYDGSKLRIGILHARWNRKIILALVAGAVLRLLEFGVKAENIIIETVPGSFELPYGSKLFVEKQKRLGKPLDAIIPIGVLIKGSTMHFEYICDSTTHQLMKLNFELGIPVIFGVLTCLTDEQAEARAGLIEGKMHNHGEDWGAAAVEMATKFN | binds |  |
| I32-06A (designed binder, also called dimer component of I32-06) MTDYIRDGSAIKALSFAIILAEADLRHIPQDLQRLAVRVIHACGMVDVANDLAFSEGAGKAGRNALLAGAPILCDARMVAEGITRSRLPADNRVIYTLSDPSVPELAKKIGNTRSAAALDLWLPHIEGSIVAIGNAPTALFRLFELLDAGAPKPALIIGMPVGFVGAAESKDELAANSRGVPYVIVRGRRGGSAMTAAAVNALASERE |  | binds |
